The chains are these.
B1: peptide HD2 (from tick evasin EVA4) / CCL8 (biotinylated, synthetic) (parent)
chain 1: EEDDYTAYAPLTCYFT
chain 2: QPDSVSIPITCCFNVINRKIPIQRLESYTRITNIQCPKEAVIFKTKRGKEVCADPKERWVRDSMKHLDQIFQNLKP
B2: peptide HD2 (from tick evasin EVA4) / CCL18 (biotinylated, synthetic) (parent)
chain 1: EEDDYTAYAPLTCYFT
chain 2: AQVGTNKELCCLVYTSWQIPQKFIVDYSETSPQCPKPGVILLTKRGRQICADPNKKWVQKYISDLKLNA
B3: peptide HD2 (from tick evasin EVA4) / CCL17 (biotinylated, synthetic) (parent)
chain 1: EEDDYTAYAPLTCYFT
chain 2: ARGTNVGRECCLEYFKGAIPLRKLKTWYQTSEDCSRDAIVFVTVQGRAICSDPNNKRVKNAVKYLQSLERS
B4: peptide HD2 (from tick evasin EVA4) / CCL4 (biotinylated, synthetic) (parent)
chain 1: EEDDYTAYAPLTCYFT
chain 2: APMGSDPPTACCFSYTARKLPRNFVVDYYETSSLCSQPAVVFQTKRSKQVCADPSESWVQEYVYDLELN
B5: peptide HD2 (from tick evasin EVA4) / CCL1 (biotinylated, synthetic) (parent)
chain 1: EEDDYTAYAPLTCYFT
chain 2: KSMQVPFSRCCFSFAEQEIPLRAILCYRNTSSICSNEGLIFKLKRGKEACALDTVGWVQRHRKMLRHCPSKRK
B6: peptide HD2 (from tick evasin EVA4) / CXCL14 (biotinylated, synthetic) (parent)
chain 1: EEDDYTAYAPLTCYFT
chain 2: SKCKCSRKGPKIRYSDVKKLEMKPKYPHCEEKMVIITTKSVSRYRGQEHCLHPKLQSTKRFIKWYNAWNEKRRVYEE

One assay covers variants of B1. The note with it: with CCL8 (biotinylated, synthetic); scale: log2.
Regarding chain 1 C13P, the enrichment is -9.12.

Take chain 1 Y5Q: the enrichment is -4.88.

Consider chain 1 Y5R, for which the enrichment was -6.57.

As for chain 1 Y5K, the enrichment was -5.12.

On to chain 1 P10I, for which the enrichment is -7.96.

Turning to chain 1 P10K, the enrichment is -6.48.

As for chain 1 P10V, the enrichment was -9.9.

Turning to chain 1 P10M, the enrichment was -8.02.

In the case of chain 1 P10F, the enrichment was -8.93.

For chain 1 P10H, the enrichment was -7.47.

For chain 1 L11P, the enrichment is -7.62.

Take chain 1 A9P: the enrichment was -7.32.

Take chain 1 Y8E: the enrichment is -5.7.

chain 1 Y8P: the enrichment was -7.38.

Consider chain 1 Y8G, for which the enrichment was -8.23.

As for chain 1 Y8Q, the enrichment is -5.88.

Take chain 1 Y8K: the enrichment is -5.59.

On to chain 1 E2C, for which the enrichment is -9.53.

Variants of B2 are the subject of a further assay. To be noted: with CCL18 (biotinylated, synthetic); scale: log2.
Take chain 1 Y5K: the enrichment is -5.8.

Consider chain 1 Y14P, for which the enrichment was -9.05.

For the variant chain 1 T6C, the enrichment is -11.3.

Take chain 1 A7C: the enrichment is -10.

Turning to chain 1 D4C, the enrichment is -9.44.

Turning to chain 1 D3C, the enrichment was -10.1.

As to chain 1 E1C, the enrichment is -9.95.

chain 1 A9D: the enrichment was -8.43.

Consider chain 1 Y8R, for which the enrichment is -8.38.

As for chain 1 Y8K, the enrichment is -6.27.

For the variant chain 1 Y8E, the enrichment is -6.38.

On to chain 1 C13S, for which the enrichment is -9.93.

Take chain 1 C13K: the enrichment was -9.32.

In the case of chain 1 C13D, the enrichment is -9.35.

Turning to chain 1 C13E, the enrichment is -10.1.

For the variant chain 1 C13H, the enrichment was -8.85.

Regarding chain 1 C13G, the enrichment is -10.6.

For chain 1 C13A, the enrichment is -10.8.

As to chain 1 P10T, the enrichment is -8.06.

Consider chain 1 P10S, for which the enrichment is -9.39.

chain 1 P10E: the enrichment is -8.1.

Consider chain 1 P10I, for which the enrichment is -8.64.

As to chain 1 P10K, the enrichment was -7.16.

chain 1 P10R: the enrichment was -9.28.

With chain 1 P10M, the enrichment is -8.7.

As for chain 1 P10C, the enrichment was -9.92.

Regarding chain 1 P10H, the enrichment is -8.15.

Turning to chain 1 T16C, the enrichment is -7.88.

Variants of B3 are the subject of another assay. The note with it: with CCL17 (biotinylated, synthetic); scale: log2.
Consider chain 1 C13D, for which the enrichment was -9.26.

For the variant chain 1 C13A, the enrichment is -10.7.

With chain 1 C13G, the enrichment is -10.5.

Regarding chain 1 C13K, the enrichment was -9.23.

As to chain 1 C13W, the enrichment is -9.75.

chain 1 C13H: the enrichment was -8.75.

For the variant chain 1 D3C, the enrichment is -10.

Consider chain 1 A7C, for which the enrichment was -9.94.

As to chain 1 A9D, the enrichment is -8.33.

As to chain 1 A9C, the enrichment is -10.2.

Take chain 1 A9P: the enrichment is -7.91.

Consider chain 1 A9K, for which the enrichment was -6.73.

For chain 1 A9I, the enrichment was -10.1.

The variants in a further assay derive from B4. To be noted: with CCL4 (biotinylated, synthetic); scale: log2.
Turning to chain 1 C13R, the enrichment is -10.1.

Take chain 1 C13H: the enrichment is -8.22.

On to chain 1 T6C, for which the enrichment was -10.7.

For the variant chain 1 D4C, the enrichment is -8.81.

Regarding chain 1 A9D, the enrichment was -7.8.

In the case of chain 1 A9C, the enrichment was -9.66.

For chain 1 Y8C, the enrichment was -9.25.

Regarding chain 1 Y8R, the enrichment is -7.75.

As for chain 1 Y8M, the enrichment is -8.06.

Regarding chain 1 Y8K, the enrichment was -5.64.

As for chain 1 Y8Q, the enrichment was -5.93.

chain 1 Y8G: the enrichment was -8.28.

Regarding chain 1 E2C, the enrichment was -9.58.

Consider chain 1 D3K, for which the enrichment was -4.93.

Consider chain 1 D3C, for which the enrichment was -9.47.

Consider chain 1 E1C, for which the enrichment was -9.32.

chain 1 P10N: the enrichment is -7.59.

Take chain 1 P10I: the enrichment was -8.01.

For chain 1 P10H, the enrichment was -7.52.

Turning to chain 1 P10M, the enrichment is -8.07.

On to chain 1 P10K, for which the enrichment was -6.53.

On to chain 1 P10R, for which the enrichment is -8.65.

With chain 1 Y5K, the enrichment is -5.17.

For chain 1 Y5A, the enrichment was -6.64.

For chain 1 Y5N, the enrichment is -7.28.

Turning to chain 1 Y5Q, the enrichment is -4.93.

As for chain 1 Y5G, the enrichment was -6.68.

The variants in the next assay derive from B5. The note with it: with CCL1 (biotinylated, synthetic); scale: log2.
Turning to chain 1 A7C, the enrichment is -9.07.

In the case of chain 1 C13I, the enrichment was -7.4.

Consider chain 1 C13K, for which the enrichment is -8.35.

For chain 1 C13L, the enrichment is -10.5.

As for chain 1 C13H, the enrichment is -7.88.

Regarding chain 1 E2C, the enrichment was -9.24.

On to chain 1 E2K, for which the enrichment is -4.38.

Consider chain 1 Y14K, for which the enrichment was -7.4.

Regarding chain 1 Y14D, the enrichment was -6.76.

chain 1 Y14E: the enrichment was -7.99.

Turning to chain 1 Y14G, the enrichment is -9.73.

chain 1 Y14N: the enrichment was -6.13.

With chain 1 Y14P, the enrichment is -8.08.

Take chain 1 Y5T: the enrichment is -6.9.

On to chain 1 Y5P, for which the enrichment was -5.96.

In the case of chain 1 Y5K, the enrichment was -4.83.

For chain 1 Y5H, the enrichment is -6.55.

Consider chain 1 Y5A, for which the enrichment is -6.3.

With chain 1 Y5C, the enrichment was -8.4.

For chain 1 Y5D, the enrichment is -6.28.

On to chain 1 Y5G, for which the enrichment is -6.34.

For the variant chain 1 Y5V, the enrichment is -8.5.

For chain 1 Y5E, the enrichment was -2.71.

Take chain 1 Y5Q: the enrichment was -4.59.

As for chain 1 Y5S, the enrichment is -8.33.

chain 1 Y5M: the enrichment was -6.87.

Take chain 1 Y5R: the enrichment is -6.28.

Regarding chain 1 P10K, the enrichment is -6.19.

Take chain 1 P10T: the enrichment is -7.09.

With chain 1 P10H, the enrichment is -7.18.

In the case of chain 1 P10F, the enrichment was -8.64.

For the variant chain 1 P10C, the enrichment was -8.95.

As for chain 1 P10Y, the enrichment was -7.79.

Regarding chain 1 P10R, the enrichment was -8.31.

As for chain 1 P10S, the enrichment was -8.42.

In the case of chain 1 P10I, the enrichment is -7.67.

Take chain 1 P10N: the enrichment is -7.25.

As to chain 1 A9H, the enrichment is -7.44.

With chain 1 A9C, the enrichment is -9.32.

Turning to chain 1 A9D, the enrichment was -7.46.

With chain 1 A9K, the enrichment was -5.86.

On to chain 1 Y8K, for which the enrichment is -5.3.

On to chain 1 Y8N, for which the enrichment was -7.36.

Take chain 1 Y8E: the enrichment was -5.41.

Take chain 1 Y8T: the enrichment was -7.71.

In the case of chain 1 Y8H, the enrichment is -6.8.

Regarding chain 1 Y8Q, the enrichment was -5.59.

As to chain 1 Y8R, the enrichment is -7.41.

chain 1 Y8C: the enrichment is -8.91.

For the variant chain 1 Y8S, the enrichment was -8.97.

Regarding chain 1 Y8G, the enrichment is -7.94.

chain 1 E1C: the enrichment is -8.98.

In the case of chain 1 L11P, the enrichment is -7.33.

For the variant chain 1 L11E, the enrichment was -7.4.

Consider chain 1 L11N, for which the enrichment was -7.68.

For chain 1 D3K, the enrichment is -4.59.

Take chain 1 D3R: the enrichment was -6.68.

Take chain 1 D3C: the enrichment is -9.13.

Regarding chain 1 D4K, the enrichment is -6.11.

For chain 1 D4V, the enrichment is -9.08.

Turning to chain 1 D4Q, the enrichment is -5.71.

chain 1 D4T: the enrichment is -7.11.

With chain 1 D4G, the enrichment was -5.45.

Take chain 1 D4C: the enrichment is -8.47.

As to chain 1 D4R, the enrichment was -6.32.

In another assay the parent is B6. To be noted: with CXCL14 (biotinylated, synthetic); scale: log2.
Regarding chain 1 D3W, the enrichment was -5.18.

For the variant chain 1 D3C, the enrichment is -8.16.

Regarding chain 1 D3Q, the enrichment was -3.25.

chain 1 D3M: the enrichment is -6.1.

As to chain 1 D3R, the enrichment was -5.71.

Turning to chain 1 D3H, the enrichment was -5.23.

As to chain 1 D3K, the enrichment was -3.62.

With chain 1 D3V, the enrichment was -7.6.

In the case of chain 1 D3A, the enrichment was -5.29.

On to chain 1 D3L, for which the enrichment was -8.51.

For the variant chain 1 D3S, the enrichment is -7.81.

Regarding chain 1 T16F, the enrichment is -5.71.

For chain 1 T16R, the enrichment was -7.45.

Consider chain 1 T16Y, for which the enrichment is -5.41.

As to chain 1 Y14D, the enrichment is -5.79.

Take chain 1 Y14I: the enrichment was -5.53.

For the origin of these results see PMC11969024, “Development of chemokine network inhibitors using combinatorial saturation mutagenesis” (Communications Biology, 2025).
